Assay results from patent US20130150297A1 (KAI PHARMACEUTICALS, published 2013).
Square brackets hold non-standard residues; d marks the D form. Ends that are not written are not given here.

T1: human calcium-sensing receptor (CaSR) (human, UniProt P41180 20-1078)
T1 sequence (looked up): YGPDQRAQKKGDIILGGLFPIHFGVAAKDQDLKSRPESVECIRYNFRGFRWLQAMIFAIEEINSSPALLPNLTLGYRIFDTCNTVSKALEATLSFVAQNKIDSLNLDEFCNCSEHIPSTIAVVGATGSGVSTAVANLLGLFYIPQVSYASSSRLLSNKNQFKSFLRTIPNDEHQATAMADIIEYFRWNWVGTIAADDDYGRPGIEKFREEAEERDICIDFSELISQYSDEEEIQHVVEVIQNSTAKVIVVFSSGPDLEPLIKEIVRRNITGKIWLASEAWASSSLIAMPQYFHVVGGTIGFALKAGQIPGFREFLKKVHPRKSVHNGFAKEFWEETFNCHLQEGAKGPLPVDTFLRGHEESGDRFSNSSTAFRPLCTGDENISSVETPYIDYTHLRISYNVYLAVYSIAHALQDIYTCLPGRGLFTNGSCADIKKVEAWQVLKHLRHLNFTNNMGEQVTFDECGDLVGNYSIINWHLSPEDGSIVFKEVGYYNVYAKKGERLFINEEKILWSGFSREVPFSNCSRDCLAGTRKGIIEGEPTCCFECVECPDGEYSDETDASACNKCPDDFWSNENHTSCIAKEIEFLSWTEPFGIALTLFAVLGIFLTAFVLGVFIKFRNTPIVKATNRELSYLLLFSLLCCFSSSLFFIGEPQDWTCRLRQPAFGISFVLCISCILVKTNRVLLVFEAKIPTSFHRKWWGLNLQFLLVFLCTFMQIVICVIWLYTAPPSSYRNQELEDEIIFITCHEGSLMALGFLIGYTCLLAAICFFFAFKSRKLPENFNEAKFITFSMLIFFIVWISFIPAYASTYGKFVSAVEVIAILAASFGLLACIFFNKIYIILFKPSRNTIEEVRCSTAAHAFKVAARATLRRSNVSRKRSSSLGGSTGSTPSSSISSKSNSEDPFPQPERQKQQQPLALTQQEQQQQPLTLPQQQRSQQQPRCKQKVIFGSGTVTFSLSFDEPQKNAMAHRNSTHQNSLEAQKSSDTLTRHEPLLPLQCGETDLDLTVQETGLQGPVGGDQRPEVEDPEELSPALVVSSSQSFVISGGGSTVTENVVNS

B1: Ac-cArrrAr-NH2 (peptide)
peptide: XAXXXAX
modifications: N-terminal acetyl; C-terminal amide; D-amino acids except L-Ala 2 and L-Ala 6
B2: Ac-CaRrRaR-NH2 (peptide)
peptide: CXRXRXR
modifications: N-terminal acetyl; C-terminal amide; L-Cys 1, D-Ala 2, L-Arg 3, D-Arg 4, L-Arg 5, D-Ala 6, L-Arg 7
B3: Ac-crrrr-NH2 (peptide)
peptide: XXXXX
modifications: N-terminal acetyl; C-terminal amide; all residues D-amino acids
B4: Ac-cGrrrGr-NH2 (peptide)
peptide: XGXXXGX
modifications: N-terminal acetyl; C-terminal amide; D-amino acids except Gly 2 and Gly 6
B5: c(C)arrrar-NH2 (peptide)
peptide: XXXXXXX
modifications: no N-terminal cap; C-terminal amide; all seven residues D-amino acids; D-Cys 1 linked to an L-Cys residue
B6: Ac-c(C)arrrar-NH2 (peptide)
peptide: XXXXXXX
modifications: N-terminal acetyl; C-terminal amide; all seven residues D-amino acids; D-Cys 1 linked by a disulfide bond to an L-Cys residue
B7: crrrrrr-NH2 (peptide)
peptide: XXXXXXX
modifications: no N-terminal cap; C-terminal amide; all residues D-amino acids
B8: Ac-c(Ac-C)arrrar-NH2 (peptide)
peptide: XXXXXXX
modifications: not fully specified; N-terminal acetyl; C-terminal amide; all seven residues D-amino acids; N-acetyl-L-Cys attached to the side chain of D-Cys 1
B9: Ac-caaarrrrrr-NH2 (peptide)
peptide: Ac-[dC][dA][dA][dA][dR][dR][dR][dR][dR][dR]-NH2
SMILES: CC(=O)N[C@H](CS)C(=O)N[C@H](C)C(=O)N[C@H](C)C(=O)N[C@H](C)C(=O)N[C@H](CCCNC(=N)N)C(=O)N[C@H](CCCNC(=N)N)C(=O)N[C@H](CCCNC(=N)N)C(=O)N[C@H](CCCNC(=N)N)C(=O)N[C@H](CCCNC(=N)N)C(=O)N[C@H](CCCNC(=N)N)C(N)=O
B10: Ac-c(PEG5-C)rrrrrr-NH2 (peptide)
peptide: XXXXXXX
modifications: N-terminal acetyl; C-terminal amide; all residues D-amino acids; L-Cys carrying a 5 kDa polyethylene glycol (PEG5-C) attached to the side chain of D-Cys 1
B11: Ac-dHcy rrrrrr-NH2 (peptide)
peptide: XXXXXXX
modifications: N-terminal acetyl; C-terminal amide; residue 1 is D-homocysteine (dHcy); residues 2-7 D-Arg
B12: Ac-c(Benzoyl)rrrrrr-NH2 (peptide)
peptide: XXXXXXX
modifications: N-terminal acetyl; C-terminal amide; all residues D-amino acids; benzoyl attached to the side chain of D-Cys 1
B13: (SEQ ID NO: 45) (SEQ ID NO: 47) conjugate, structure given only as drawing CHEM-US-00001 (peptide)
peptide 1: CHDAPIGYD
peptide 2: CYGRKKRRQRRR
modifications: cysteine pairing not given here; also: further groups not given here
B14: Ac-YGRKKRRQRRR-NH2 (peptide)
peptide: Ac-YGRKKRRQRRR-NH2
B15: Ac-C(C)arrrar-NH2 (peptide)
peptide: XXXXXXX
modifications: not fully specified; N-terminal acetyl; C-terminal amide; L-Cys 1 linked by a disulfide bond to an L-Cys residue; residues 2-7 D-amino acids
B16: (SEQ ID NO: 46) (SEQ ID NO: 47) conjugate, structure given only as drawing CHEM-US-00002 (peptide)
peptide 1: CPDYHDAGI
peptide 2: CYGRKKRRQRRR
modifications: cysteine pairing not given here; also: further groups not given here
B17: Ac-c(GS)rrrrrr-NH2 (peptide)
peptide: XXXXXXX
modifications: N-terminal acetyl; C-terminal amide; all residues D-amino acids; oxidized glutathione (GS) attached to the side chain of D-Cys 1
B18: Ac-c(acetyl)rrrrrr-NH2 (peptide)
peptide: XXXXXXX
modifications: N-terminal acetyl; C-terminal amide; all residues D-amino acids; acetyl attached to the side chain of D-Cys 1
B19: Ac-c(Mpa)arrrar-NH2 (peptide)
peptide: XXXXXXX
modifications: N-terminal acetyl; C-terminal amide; all residues D-amino acids; mercaptopropionic acid (Mpa) attached to the side chain of D-Cys 1
B20: Ac-carrrar-OH (peptide)
peptide: XXXXXXX
modifications: N-terminal acetyl; free C-terminal acid (-OH); all residues D-amino acids
B21: Ac-CYGRKKRRQRRR-NH2 (peptide)
peptide: Ac-CYGRKKRRQRRR-NH2
B22: Ac-bAla-crrrrrr-NH2 (peptide)
peptide: XXXXXXXX
modifications: N-terminal acetylated beta-alanine; C-terminal amide; Cys and Arg residues are D-amino acids
B23: Ac-cygrkkrrqrrr-NH2 (peptide)
peptide: XXXXXXXXXXXX
modifications: N-terminal acetyl; C-terminal amide; printed in lower case (D-amino acids; glycine is achiral)
B24: Ac-CARRRAR-NH2 (peptide)
peptide: Ac-CARRRAR-NH2
B25: Ac-bAla-c(C)arrrar-NH2 (peptide)
peptide: XXXXXXXX
modifications: not fully specified; N-terminal acetylated beta-alanine; C-terminal amide; c, a, r residues D-amino acids; D-Cys linked to an L-Cys residue

What follows are binders tested against T1, human calcium-sensing receptor (CaSR) (assay: cell-based or functional assay).

Binder | decrease in potency relative to Ac-carrrar-NH2 (SEQ ID NO:26) | difference in potency relative to Ac-carrrar-NH2 (SEQ ID NO:26) | shift in potency in HEK-293 in vitro cell assay (4 versus 5 arginine subunits) | reduction in potency relative to Ac-carrrar-NH2 (SEQ ID NO:26)
B1 | > 600 fold |  |  | 
B2 |  | < 4 fold |  | 
B3 |  |  | > 10 fold | 
B4 |  |  |  | < 8 fold

Target: T1, human calcium-sensing receptor (CaSR)
Test: cell-based or functional assay
Remark: another data set of the same source

Binder | EC50 (µM), CaSR in vitro assay (IP1 production)
B5 | 3.1 µM
B1 | > 1000 µM
B6 | 10 µM
B7 | 1.1 µM
B8 | 21 µM
B9 | 4.6 µM
B2 | 5.6 µM
B10 | 0.58 µM
B11 | 2 µM
B12 | 3.6 µM
B13 | 21 µM
B14 | 16 µM
B15 | 2.5 µM
B3 | 16 µM
B16 | 21 µM
B17 | 7.8 µM
B18 | 4.1 µM
B19 | 21 µM
B20 | 31 µM
B21 | 4.5 µM
B22 | 1 µM
B23 | 2 µM
B24 | 58 µM
B25 | 2.6 µM
